Experimental data as given in the nanobody polyreactivity screen of Harvey et al. (2022).

Experiment: yeast display, Sf9 membrane polyspecificity reagent, FACS + sequencing; frameworks hold sequencing errors
Summary of the method: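 Galactose induction of a Saccharomyces cerevisiae BJ5465 synthetic nanobody display library ran 36–48 hours. The cells were then stained for 1 hour at 4 °C with 10% biotinylated, detergent-solubilized Sf9 membrane reagent, pulled down on streptavidin microbeads and FACS-sorted into low and high (top ~1%) gates on expression and reagent-binding fluorescence. Labels for polyreactivity follow the gate of origin.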
In the case of “QVQLVESGGGLVQAGGSLRLSCAASGRTFPNNAMGWYRQAPGKERELVAVITWSGGSTYYADSVKGRFTISRDNAKNTVYLQMNSLKPEDTAVYYCATDYTGKWKDHYYYWGQGTQVTVSS”, the “polyreactivity (PSR sort gate)” value is reported as “low polyreactivity”. In the case of “QVQLVESGGGLVQAGGSLRLSCAASGRIIPGNAMGWYRQAPGKERELVAAISWGGGSTYYADSVKGRFTISRDNAKNTVYLQMNSLKPEDTAVYYCNAGVSIGRSRRYDYWGQGTQVTVSS”, the “polyreactivity (PSR sort gate)” value is reported as “low polyreactivity”. With “QVQLVESGGGLVQAGGSLRLSCAASGIIFDDYAMGWYRQAPGKERELVAAISVSGGSTYYADSVKGRFTISRDNAKNTVYLQMNSLKPEDTAVYYCAARLRQPYTRGNYWGQGTQVTVSS” the “polyreactivity (PSR sort gate)” value was “high polyreactivity”. For “QVQLVESGGGLVQAGGSLRLSCAASGSIFYDYEMGWYRQAPGKERELVASINTGGSTNYADSVKGRFTISRDNAKNTVYLKMNSLKPEDTAVYYCNAPRGYPTSANHLDYWGQGTQVTVSS”, the “polyreactivity (PSR sort gate)” value was “low polyreactivity”. With “QVQLVESGGGLVQAGGSLRLSCAASGRTFYSNAMGWYRQAPGKERELVAAISSSGSSTSYADSVKGRFTMSRDNAKNTVYLQMNSLKPEDTAVYYCAVRTKRRANRDYWGQGTQVTVSS” the “polyreactivity (PSR sort gate)” value was “high polyreactivity”. For “QVQLVESGGGLVQAGGTLRLSCAASGRTFRNNAMGWYRQAPGKEWELVAAISLRGGSTYYADSVKGRFTISRDNAKNTVYLLMNSLKPEDTAVYYCATRSRGWIAPPWQGSDGYYYWGQGTQVTVSS”, the “polyreactivity (PSR sort gate)” value was “low polyreactivity”. For “QVQLLESGGGLVQAGGSLRLSCAASGSIFPAYSMGWYRQAPGKERELVASITGSGGSTYYADSVKGRFTISRDNAKNSVYLQMTSLKPEETAVYYCNARYYVYSATVDRYYHFYYWGQGTQVTVSS”, the “polyreactivity (PSR sort gate)” value was “high polyreactivity”. For “QVQLVETGGGLVQAGGSLRLSCAASGLTFRGYAKGWYIQAPGKERELVARITIGSSTNYADSVKGRFTISRDIAKNTVYLQMNSLKQEDSAVYYCAADKPGQFTPSYNKIYDYWGQGTQVTVSS”, the “polyreactivity (PSR sort gate)” value was “low polyreactivity”. In the case of “QVQLVESGGGLVQAGGSLRLSCAASGSIFNINVMGWYRQAPGKEREMVAAINSGTSTYYADSVKGRFTISRDNAKNTVYLQMNSLKPEDTAVYYCAARNLFTGRRLFYYWGQGTQVTVSS”, the “polyreactivity (PSR sort gate)” value is reported as “low polyreactivity”. For “QDQLVESGGGLVQARGSLRLSCASSGSICDHYVMGWYRQAPGKERELVAAITSGDRTNYADSVKGRFTISRDKAKNTVYLQMNSLTPEDTEGYYCNADYQSYFYYTTWYYDYDYWGKGTQVTVSS”, the “polyreactivity (PSR sort gate)” value was “low polyreactivity”. With “QVQLVESGGGLVQAGVSLLLTCAASGRISFRYAMVWYRQAPGKERELVAAINRGGITNYADSVKGRFTISRDNAKNTVYLKMNSLKKEDTAVYYCAARYASPRYKSKMDYWGQGTQVTVSS” the “polyreactivity (PSR sort gate)” value was “high polyreactivity”. For “QVQLVESGGGLVQAGGSLRLSCAASGSTFYVYAMGWYRQAPGKERELVAAITRGGSTYYADSVKGRFTISRDNAKNTVYLQMNSLKPEDTAVYYCAKYLSGAADLVPEYDYWGQGTQVTVSS”, the “polyreactivity (PSR sort gate)” value was “low polyreactivity”. In the case of “QVQLVESGGGLVQAGRSLRLSCAASGIISYRNGMGGYRQAPGKERELVASISKRADSTYYADSVKGRFTISRDNAKNTVYLQLNSLKPEDTAVYYCAARRLITCYGQTHYGYWGQGTQVTVSS”, the “polyreactivity (PSR sort gate)” value is reported as “high polyreactivity”. With “QVQLVESGGGLVQAGGSLRLSCAASGSTFYFNAMGWYRQAPGKERELVAAIDWSGGSTYYADSVKGRFTISRDNAKNTVYLQMNSLKPEDTAVYYCNADNYEWGNNYGYWGQGTQVTVSS” the “polyreactivity (PSR sort gate)” value was “low polyreactivity”. In the case of “QVQLVESGGGLVQAGGSLRLSCAASGSTFSFYAMGVYRQAPGKERELVAAISKSGGRTYYADSVKGRFTISRDNAKYTVYLQMNSLKPEDTAVYYCAARGNGQYVGKYYYWGQGTQVTVSS”, the “polyreactivity (PSR sort gate)” value is reported as “high polyreactivity”. For “QVQLVESGGGLVQAGGSLRLSCAASGFTFYYYDMGWYRQAPGKERELVAAITTGGSTKYADSVKGRFTISRDNAKNTVYLQMNSLKPEDTAVYYCNADDSVYVFSKYDYWGQGTQVTVSS”, the “polyreactivity (PSR sort gate)” value was “high polyreactivity”. With “QVQLVESGGGLVQAGVSLRLSCAASGTFYSNAMGWYRQAPGKERELVAAINTSGSTNYADSVKGRFTISRDNAKNTVYLQMNSLKPEDTAVYYCAAGIVVTGYDYWGQGTQVTVSS” the “polyreactivity (PSR sort gate)” value was “low polyreactivity”. With “QVQLVESGGGLVQAGGSLRLSCAASGISFSQYARGWYRQAPGKERELVAAISGSGGDTYYADSVKGRFTISRDNAKNTVYLQMNSLKPEDTAVYYCNADYESVYYEDYDYWGQGTQVTVSS” the “polyreactivity (PSR sort gate)” value was “low polyreactivity”. For “QVQLVESGGGLVQAGGSLRLSCAASGITFDYYGMGWYRQAPGKERELFASITSGGSTNYADSVKGRFTISRDNAKNTVYLQMNSLKPEDTAVYYCNAEFWEVSPDPRDYDYWGQGTQVTVSS”, the “polyreactivity (PSR sort gate)” value was “low polyreactivity”. In the case of “QVPLVESGGGLVQAGGSLRLSCAASGRIFGYYARGWYRQAPGKDRELVASIRRGTRTNYADSVKGRFTISRDNAKNTVYLQMNSLKPEDTAVYYGAATRFQFTTTPWYDYWGQGTQVTVSS”, the “polyreactivity (PSR sort gate)” value is reported as “high polyreactivity”. For “QVQLVESGGGLVQAGGSLRLSCAASGRTFGYYTMGWYRQAPGKEWELVATITRGGTTKYADSVKGRFTISRDNAKNTVYLQMNSLKPEDTAVYYCNARERGSRQYTFDYWGQGTQVTVSS”, the “polyreactivity (PSR sort gate)” value was “high polyreactivity”. With “QVQLVESGGGLVQAGGSLRLSCAASGFIFSYYAMGWYRQAPGKERELVAAITSSGGSTYYADSVKGRFTISRDNAKNTVYLHLNSLKPEDTAVYYCNAYVRRTRDYDYWGQGTQVTVSS” the “polyreactivity (PSR sort gate)” value was “high polyreactivity”. For “QVQLVESGGALLQAGGSLRLSCAASGRIFYHYAMGWYRQAPGKESELVAASTWSGVSTYYADSVKGRFTISRDNAKNTVDLQMNRLIPADTAVYYCATSSPYGVRRYSRGSWGQGTQVTVSS”, the “polyreactivity (PSR sort gate)” value was “high polyreactivity”. With “QVQLVESGGGLVQAGGSLRLSCAASGSIFKRNAMGWYRQAPGKERELVASISWSGTRTYYADSVKGRFTISRDKAKNTVYFQMNSLKPEDTAVYYCARRIYGGHPCQSTQGDFYYWGQGTQVTVSS” the “polyreactivity (PSR sort gate)” value was “high polyreactivity”. In the case of “QVQLVESGGGLVQAGGSLRLSCAASGSIFYYNTMGRYRQAPGKERELVAAIRFDDGSTYYADSVKGRFTISRDNAKNTVYLQMNSLKPEDTAVYYCAADWIVVSEFGLDYHMDYWGQGTQVTVSS”, the “polyreactivity (PSR sort gate)” value is reported as “low polyreactivity”. In the case of “QVQLVESGGGLVQAGGSLRLSCAASGSTFSPYAMGWYRQAPGKEMDFVAAITSSGGSTYYADSVKGRFTISRDNAKNTVYLQMNSLKPEDTALYYFAAEGYYTSTYDLFDYYYWGQGTQVTVSS”, the “polyreactivity (PSR sort gate)” value is reported as “low polyreactivity”. With “QVQLVDSGGGLVQAGGSLRLSCAASGSTFRRNAMGWYRHAPGKERELVAAINRRGGDTYYADSVKGRFTISCDNAKNTVYLQMNSLKPEDTAVYYCAAEWQSVAFDWGGYGDDYWGQGTQVTVSS” the “polyreactivity (PSR sort gate)” value was “low polyreactivity”. In the case of “QVQLVESGGGLVQAGGSLRLSCAASGSIFVFYAMGWYRQAPGKEREFVAAMSISGGRTYYADSVKGRFTISRDIAKNTVYLQMNSLKPEDTAVYYCAASRVYTSITLYYWGQGTQVTVSS”, the “polyreactivity (PSR sort gate)” value is reported as “high polyreactivity”. With “QVQLVESGGGLVQAGGSLRLSCAASGRIFSIYTMGWSRQAPGKERELVAAISASDGSTYYADSVKGRFTISRDNAKNTVYLQMNSLKPEDTAVYYCAIDTYPQKVTYGSFAYDYWGEGTQVTVSS” the “polyreactivity (PSR sort gate)” value was “low polyreactivity”. For “QVQLVESGGGLVQAGGSLRLSCAASGSIFAQYAMGWYRQAPGKERELVAAISRTGGGTYYADSVKGRFTISRDNAKNTVYLQMNSLKPEDTAVYYCAAVPGLFYLPYDYWGQGTQVTVSS”, the “polyreactivity (PSR sort gate)” value was “low polyreactivity”. With “QVQLVESGGGLVQAGGSLRLSCAASGFSFSRYAMGWYRQAPGKEREFVASITRRGGSTYYADSVKGRFTISRDNAKNTVYLQMNSLKPEDTAVYYCNAGYTWGRFEYWGQGTQVTVSS” the “polyreactivity (PSR sort gate)” value was “high polyreactivity”.
